1 molecule from PMC6385590 (European journal of immunology, 2015) can be followed below.

The target of the test is T1, interferon regulatory factor 8 (IRF8) (human (endogenous in CAL-1 and primary …, UniProt Q02556 1-426)).
T1 sequence (looked up): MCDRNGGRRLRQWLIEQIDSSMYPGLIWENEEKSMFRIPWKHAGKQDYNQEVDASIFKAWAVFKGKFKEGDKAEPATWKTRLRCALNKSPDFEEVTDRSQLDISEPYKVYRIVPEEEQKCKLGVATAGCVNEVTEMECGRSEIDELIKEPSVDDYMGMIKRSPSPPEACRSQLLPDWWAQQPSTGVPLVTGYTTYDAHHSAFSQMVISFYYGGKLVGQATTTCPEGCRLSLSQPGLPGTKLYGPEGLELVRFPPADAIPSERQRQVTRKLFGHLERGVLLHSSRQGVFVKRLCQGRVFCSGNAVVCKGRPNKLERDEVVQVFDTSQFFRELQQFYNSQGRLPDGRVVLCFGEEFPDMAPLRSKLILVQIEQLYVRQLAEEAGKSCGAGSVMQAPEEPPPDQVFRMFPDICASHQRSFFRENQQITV
Nature of the test: proximity ligation.

B1: interferon regulatory factor 5 (IRF5) (natural protein, UniProt Q13568 1-498, looked up)
chain: MNQSIPVAPTPPRRVRLKPWLVAQVNSCQYPGLQWVNGEKKLFCIPWRHATRHGPSQDGDNTIFKAWAKETGKYTEGVDEADPAKWKANLRCALNKSRDFRLIYDGPRDMPPQPYKIYEVCSNGPAPTDSQPPEDYSFGAGEEEEEEEELQRMLPSLSLTEDVKWPPTLQPPTLRPPTLQPPTLQPPVVLGPPAPDPSPLAPPPGNPAGFRELLSEVLEPGPLPASLPPAGEQLLPDLLISPHMLPLTDLEIKFQYRGRPPRALTISNPHGCRLFYSQLEATQEQVELFGPISLEQVRFPSPEDIPSDKQRFYTNQLLDVLDRGLILQLQGQDLYAIRLCQCKVFWSGPCASAHDSCPNPIQREVKTKLFSLEHFLNELILFQKGQTNTPPPFEIFFCFGEEWPDRKPREKKLITVQVVPVAARLLLEMFSGELSWSADSIRLQISNPDLKDRMVEQFKELHHIWQSQQRLQPVAQAPPGAGLGVGQGPWPMHPAGMQ
On to B1, for which the “fold of nuclear PLA colocalization over unstimulated cells (after 1 h CpG ODN)” value is above 3 fold.
